In one assay the target is SRPK1. The following applies: determined using in vitro phosphorylation assays; read-out: dissociation constant (Kd) of SRSF1 RS domain binding to SRPK1; cited from earlier work.
In the next assay the target is T1, endogenous SRPK1 (Homo sapiens, UniProt Q96SB4).
T1 construct: endogenous in cells; host or cells: HeLa cells
As to the kind of experiment: Coimmunoprecipitation of endogenous SRPK1 with ICP27 (anti-ICP27 IP, Western blot anti-SRPK1). In kind it is cell-based. To be noted: HeLa cells transfected with ICP27 plasmid, infected with 27-LacZ for 8 h. The source says: (§1) ICP27 mutants were constructed to target sites within the RGG box that contact SRPK1 in the crystal structure. Arginines at positions 142, 144, 146, and 148 were changed to glycine (G) as single (R142G, R146G, or R148G), double (R142G R146G), and quadruple (R142G R144G R146G R148G) substitutions. The ICP27 mutant plasmids were cotransfected with a plasmid expressing green fluorescent protein (GFP)-SRPK1 and subsequently infected with ICP27 null mutant virus 27-LacZ to recapitulate the conditions of infection. At 8 h after infection, lysates were immunoprecipitated with anti-GFP antibody, and samples were analyzed by Western blotting and probed with antibody to ICP27 (Fig. 5A). […] ICP27 interaction with endogenous SRPK1 was also analyzed. Cells were transfected with WT and ICP27 mutant plasmids and infected with 27-LacZ as described above. Immunoprecipitation was performed with anti-ICP27 antibody and the blots were probed with antibody to SRPK1 (Fig. 5B). SRPK1 was only coimmunoprecipitated with WT ICP27 and was not detected with any of the mutants.
(§2) HeLa cells cotransfected with GFP-SRPK1 and WT ICP27 or RGG box mutants were infected for 8 h with 27-LacZ. Immunoprecipitation was performed using anti-GFP antibody. Western blots were probed with anti-GFP or anti-ICP27 antibody and anti-β-actin as a loading control. […] GFP fluorescence was visualized directly. […]
(In general: Immunoblotting shows a protein as a band on a membrane.)

Assay [1] deals with GFP-SRPK1. The assay is described as follows: Immunofluorescence: cellular localization of GFP-SRPK1. In kind it is cell-based, rabbit skin fibroblasts (RSF). The following applies: RSF cells cotransfected with GFP-SRPK1 and ICP27 plasmid, infected with 27-LacZ, fixed 6 h later; representative of ∼80% of cells. Here is the method:
HeLa cells cotransfected with GFP-SRPK1 and WT ICP27 or RGG box mutants were infected for 8 h with 27-LacZ. Immunoprecipitation was performed using anti-GFP antibody. Western blots were probed with anti-GFP or anti-ICP27 antibody and anti-β-actin as a loading control. (B) HeLa cells transfected with WT and ICP27 RGG box mutants were infected with 27-LacZ for 8 h. Immunoprecipitation was performed with anti-ICP27 antibody. Western blots were probed with anti-SRPK1 or anti-ICP27 antibody as indicated and anti-β-actin as a loading control. (C) RSF cells were transfected with GFP-SRPK1 and 16 h later were mock infected, infected with WT HSV-1 or 27-LacZ, or were cotransfected with GFP-SRPK1 and WT ICP27 or ICP27 RGG box mutants and infected 16 later with 27-LacZ. Cells were fixed 6 h later and immunofluorescent staining was performed with anti-ICP27. ICP4 antibody was used to stain the 27-LacZ sample to mark the nucleus. GFP fluorescence was visualized directly. The panels shown are representative of ∼80% of cells visualized. (D) HeLa cells were transfected with GFP-SRPK1 and WT ICP27 or RGG box mutants and were infected with 27-LacZ 16 h after transfection for 8 h. […]
In immunofluorescence experiments, rabbit skin fibroblasts (RSF) were transfected and/or infected as indicated in the legend to Fig. 5. […] GFP fluorescence was viewed directly. […]

The test system of assay [2] is SRPK1 phosphorylation of SR proteins. The assay is described as follows: In vivo SR protein phosphorylation analysis (Western blot, antiphosphoepitope SR antibody). In kind it is cell-based. The following applies: HeLa cells cotransfected with GFP-SRPK1 and ICP27 plasmid, infected with 27-LacZ for 8 h. The method, then: HeLa cells cotransfected with GFP-SRPK1 and WT ICP27 or RGG box mutants were infected for 8 h with 27-LacZ. Immunoprecipitation was performed using anti-GFP antibody. Western blots were probed with anti-GFP or anti-ICP27 antibody and anti-β-actin as a loading control. (B) HeLa cells transfected with WT and ICP27 RGG box mutants were infected with 27-LacZ for 8 h. Immunoprecipitation was performed with anti-ICP27 antibody. Western blots were probed with anti-SRPK1 or anti-ICP27 antibody as indicated and anti-β-actin as a loading control. (C) RSF cells were transfected with GFP-SRPK1 and 16 h later were mock infected, infected with WT HSV-1 or 27-LacZ, or were cotransfected with GFP-SRPK1 and WT ICP27 or ICP27 RGG box mutants and infected 16 later with 27-LacZ. Cells were fixed 6 h later and immunofluorescent staining was performed with anti-ICP27. ICP4 antibody was used to stain the 27-LacZ sample to mark the nucleus. GFP fluorescence was visualized directly. The panels shown are representative of ∼80% of cells visualized. (D) HeLa cells were transfected with GFP-SRPK1 and WT ICP27 or RGG box mutants and were infected with 27-LacZ 16 h after transfection for 8 h. Portions of cell lysates were fractionated by SDS-PAGE, and Western blots were probed with antiphosphoepitope SR antibody, anti-SF2 (SRSF1), anti-ICP27 antibody, and anti-lamin B1 antibody as a loading control. […]

Assay [3] concerns the target T2, GFP-SRPK1 (Homo sapiens, UniProt Q96SB4).
T2 construct: expressed in transfected cells; host or cells: HeLa cells, infected with HSV-1 27-LacZ
The assay is described as follows: Coimmunoprecipitation of ICP27 with GFP-SRPK1 (anti-GFP IP, Western blot anti-ICP27). In kind it is cell-based. To be noted: HeLa cells cotransfected with GFP-SRPK1 and ICP27 plasmid, infected with 27-LacZ for 8 h.
Description: as §1, §2

Values joined by “and” are separate entries in the source; they are usually repeats but may differ in a detail not shown here. Identical values can stand only once.

T1 sequence (Q96SB4 whole entry): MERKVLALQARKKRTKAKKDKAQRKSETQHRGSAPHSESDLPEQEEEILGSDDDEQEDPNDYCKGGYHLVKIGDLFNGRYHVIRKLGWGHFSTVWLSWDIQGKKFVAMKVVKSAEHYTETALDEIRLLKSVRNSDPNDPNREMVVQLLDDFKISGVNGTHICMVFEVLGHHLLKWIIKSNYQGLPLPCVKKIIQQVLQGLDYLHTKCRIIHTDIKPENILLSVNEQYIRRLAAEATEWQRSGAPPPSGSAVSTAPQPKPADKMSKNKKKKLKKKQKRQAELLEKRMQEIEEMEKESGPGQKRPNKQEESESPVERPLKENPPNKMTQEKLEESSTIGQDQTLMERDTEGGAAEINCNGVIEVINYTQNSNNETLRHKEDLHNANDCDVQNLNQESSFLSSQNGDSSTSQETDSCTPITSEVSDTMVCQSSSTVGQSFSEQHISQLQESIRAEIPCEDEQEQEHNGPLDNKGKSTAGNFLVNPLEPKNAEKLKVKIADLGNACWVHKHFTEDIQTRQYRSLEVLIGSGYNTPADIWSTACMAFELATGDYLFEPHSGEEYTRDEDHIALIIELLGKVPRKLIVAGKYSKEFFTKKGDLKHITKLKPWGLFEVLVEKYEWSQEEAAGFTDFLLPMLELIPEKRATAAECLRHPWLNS
T2 sequence (Q96SB4 whole entry): as above

With “SRSF1: prototype SR protein, native cellular substrate of SRPK1”, on SRPK1, the equilibrium dissociation constant (Kd) (as a rule, a measure of binding affinity in units of concentration) is ~50 nM and 50 nM.

B1: WT ICP27: full-length wild-type HSV-1 protein ICP27 expressed from plasmid (protein)
chain: MATDIDMLIDLGLDLSDSDLDEDPPEPAESRRDDLESDSSGECSSSDEDMEDPHGEDGPEPILDAARPAVRPSRPEDPGVPSTQTPRPTERQGPNDPQPAPHSVWSRLGARRPSCSPEQHGGKVARLQPPPTKAQPARGGRRGRRRGRGRGGPGAADGLSDPRRRAPRTNRNPGGPRPGAGWTDGPGAPHGEAWRGSEQPDPPGGQRTRGVRQAPPPLMTLAIAPPPADPRAPAPERKAPAADTIDATTRLVLRSISERAAVDRISESFGRSAQVMHDPFGGQPFPAANSPWAPVLAGQGGPFDAETRRVSWETLVAHGPSLYRTFAGNPRAASTAKAMRDCVLRQENFIEALASADETLAWCKMCIHHNLPLRPQDPIIGTTAAVLDNLATRLRPFLQCYLKARGLCGLDELCSRRRLADIKDIASFVFVILARLANRVERGVAEIDYATLGVGVGEKMHFYLPGACMAGLIEILDTHRQECSSRVCELTASHIVAPPYVHGKYFYCNSLF
On to B1, for which the “coimmunoprecipitation of endogenous SRPK1 with ICP27” value with endogenous SRPK1 was “coimmunoprecipitated”. The “cellular localization of SRPK1” value with GFP-SRPK1 [1] is “prominently nuclear”. Further, in assay [2], the “level of phosphorylation for SRp40 (SRSF5) reduced” value was “reduced” and the “phosphorylation of SRp30 (SRSF1) reduced” value is “reduced”. The “coimmunoprecipitation of ICP27 with GFP-SRPK1” value in the assay with GFP-SRPK1 [3] is reported as “efficiently coimmunoprecipitated”.

The values above are taken from article PMC6805999, “Molecular Mechanism of SR Protein Kinase 1 Inhibition by the Herpes Virus Protein ICP27” (mBio, 2019).
